In series [1] the target is T1, NEQ395 (Nanoarchaeum equitans, UniProt Q74N22).
T1 sequence (Q74N22 1-393): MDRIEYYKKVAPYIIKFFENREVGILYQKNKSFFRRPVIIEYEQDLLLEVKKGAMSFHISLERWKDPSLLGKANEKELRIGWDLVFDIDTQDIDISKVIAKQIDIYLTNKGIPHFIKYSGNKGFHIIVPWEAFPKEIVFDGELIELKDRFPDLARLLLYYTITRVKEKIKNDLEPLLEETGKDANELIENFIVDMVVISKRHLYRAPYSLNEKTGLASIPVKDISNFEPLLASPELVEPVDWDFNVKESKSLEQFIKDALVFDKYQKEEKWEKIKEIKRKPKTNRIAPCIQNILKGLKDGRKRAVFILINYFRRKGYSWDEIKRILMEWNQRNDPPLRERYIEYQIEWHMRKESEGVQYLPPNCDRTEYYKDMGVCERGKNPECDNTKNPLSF
The series can be described thus: RP-HPLC primase assay with omission of single rNTPs. The series is classed as biochemical. Conditions: pH 6.5, 70°C.

Series [2] concerns the target T2, NEQ395 DNA primase (monomeric PriS-PriL) (Nanoarchaeum equitans, UniProt Q74N22 1-393).
T2 sequence: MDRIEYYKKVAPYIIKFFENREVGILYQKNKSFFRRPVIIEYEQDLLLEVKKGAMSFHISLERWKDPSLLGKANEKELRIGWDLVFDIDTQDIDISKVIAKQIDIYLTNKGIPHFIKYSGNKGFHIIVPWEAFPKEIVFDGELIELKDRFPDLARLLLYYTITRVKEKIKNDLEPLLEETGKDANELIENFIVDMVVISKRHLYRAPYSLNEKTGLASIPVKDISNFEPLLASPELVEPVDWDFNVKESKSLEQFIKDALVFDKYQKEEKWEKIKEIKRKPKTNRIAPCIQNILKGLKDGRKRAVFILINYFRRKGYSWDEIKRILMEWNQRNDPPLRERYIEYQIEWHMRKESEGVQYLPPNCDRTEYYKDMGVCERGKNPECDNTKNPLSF
The series can be described thus: fluorescence anisotropy.

Series [3] concerns the target T2, NEQ395 DNA primase (monomeric PriS-PriL). As to the kind of experiment: fluorescence anisotropy. The source holds these as a separate data set. On the technique in general: In fluorescence polarisation assays a small probe gives low polarisation when free and higher when bound to something large.
Series [4] shares this target. The series can be described thus: fluorescence anisotropy. This is another data set of the same source.

Where two headings read alike, the source gives them in different places.

`Nc1ncnc2c1ncn2[C@@H]1O[C@H](COP(=O)(O)OP(=O)(O)OP(=O)(O)O)[C@@H](O)[C@H]1O` [ATP]: the “RP-HPLC primase assay with omission of single rNTPs” value in series [1] (initiating nucleotide, ssDNA template Fid1-4, Mn2+) was “using an rNTP mix without ATP (the first cognate base needed for synthesis) did not initiate”.
Take `Nc1nc2c(ncn2[C@@H]2O[C@H](COP(=O)(O)OP(=O)(O)OP(=O)(O)O)[C@@H](O)[C@H]2O)c(=O)[nH]1` [GTP]: in series [1] (elongating nucleotide, ssDNA template Fid2, Mn2+), the “RP-HPLC primase assay with omission of single rNTPs” value is on record as “In presence of GTP, extension to the full-length primers occurs”.
One may read the Kd as the concentration at which binding is half-saturated. A lower Kd goes with a tighter complex. Molecule CTGTGCTCA (ssDNA) [t9-ATA (lacks ATA)] gave a Kd in series [2] of 2.87 µM.
Turning to CTATACTCA (ssDNA) [t9], the values for the dissociation constant Kd in series [2] and in series [3] were 1.06 µM and 0.58 µM, respectively.

B1: t18_ds (dsDNA)
DNA 1: TGTAAAACGACGGCCAGT
DNA 2: ACTGGCCGTCGTTTTACA
Regarding B1, binding in series [4] was put at a Kd of 0.65 µM.
In series [4], TGTAAAACGACGGCCAGT (ssDNA) [t18] displayed a dissociation constant (Kd) of 0.51 µM.

These data come from paper PMC10250227 (Nucleic Acids Research, 2023).
